Measured values taken from patent US20250066508A1 (SHENYANG SUNSHINE PHARMACEUTICAL, published 2025).
Blank lines part the entries; values can stand above or below the binder they belong to.

Key:
Human MASP-2 = Human MASP-2 (human, UniProt O00187 16-686); assay: cell-based or functional assay
MASP2-CCP1/2 = biological target: T1, MASP2-CCP1/2 (human, UniProt O00187 298-443); assay: ELISA, antigen coated 20 ng/well
T1 construct: also called CCP1/2 domain of MASP-2
Method: (§1) The enzyme-linked immunosorbent assay (ELISA) method used in the following examples is described as follows: the microplate was coated with the corresponding recombinant protein, and PBST containing 1% bovine serum albumin (PBST is phosphate buffer containing 0.05% Tween-20) was used to block the microplate. The antibody to be tested was serially diluted, then transferred to the above-mentioned microplate coated with recombinant protein, followed by incubation at room temperature for half an hour. After washing the plate, appropriately diluted HRP (Horseradish Peroxidase)-labeled goat anti-human antibody (Fc specific, purchased from Sigma) was added, followed by incubation at room temperature for half an hour. After washing the plate, 100 μl of chromogenic solution with TMB (3,3′,5,5′-Tetramethylbenzidine) was added as substrate to each well, followed by incubation at room temperature for 1 to 5 minutes. 50 μl stop solution (2M H₂SO₄) was added to stop the reaction. OD450 was read by a plate reader (SpectraMax 190). GraphPad Prism7 was used for graphing and data analyzing, and EC₅₀/IC₅₀ was calculated.

[1] = biological target: Mouse MASP2-CCP1/2-SP-RQSA (mouse, UniProt Q91WP0 298-685); assay: ELISA, antigen coated 20 ng/well
Method: as §1

Rat MASP2-CCP1/2-SP-RQSA = Rat MASP2-CCP1/2-SP-RQSA (rat, UniProt Q9JJS8 298-685); assay: ELISA, antigen coated 20 ng/well
Method: as §1

[2] = biological target: T2, Rhesus MASP2-CCP1/2-SP-RQSA (rhesus macaque, UniProt O00187 298-686 (human entry), limits assumed); assay: ELISA, antigen coated 20 ng/well
T2 construct: also called rhesus macaque MASP-2
Method: as §1

MASP2-CCP1/2-SP-RKSA [3] = biological target: T3, MASP2-CCP1/2-SP-RKSA (human, UniProt O00187 298-686); assay: ELISA, antigen coated 20 ng/well
Method: as §1
(§2) The smaller the EC₅₀ and the larger the Top, the stronger the binding effect is.

MASP2-CCP1/2-SP-RQ [4] = biological target: T4, MASP2-CCP1/2-SP-RQ (human, UniProt O00187 298-686); assay: ELISA, antigen coated 20 ng/well
Method: as §1, §2

MASP2-CCP1/2-SP-RKSA [5] = biological target: T3, MASP2-CCP1/2-SP-RKSA; assay: SPR, Biacore 8K, antibody captured on Protein A/G chip, antigen as analyte
Excerpt: (§3) Here, the affinity between the above antibodies and MASP2-CCP1/2-SP-RKSA or MASP2-CCP1/2-SP-RQ was detected by Biacore 8K (GE healthcare). On Biacore 8K, a chip conjugated with Protein A/G was used to capture various antibodies, and then the above two recombinations were used as analytes (Analyte) to flow through the chip to obtain the binding-dissociation curve, and regeneration buffer was used to regenerate the chip and proceed to the next cycle; Biacore 8K Evaluation Software was used to analyze the data.

MASP2-CCP1/2-SP-RQ [6] = biological target: T4, MASP2-CCP1/2-SP-RQ; assay: as above
Excerpt: as §3

MASP2-SP-RQSA = biological target: T5, MASP2-SP-RQSA (human, UniProt O00187 445-686, limits assumed); assay: ELISA, plate coated with MASP2-SP-RQSA (20 ng/well), HRP goat anti-human Fc, OD450
T5 construct: also called SP domain of MASP-2
Method: as §1

MASP1-CCP1/2-SP-RQSA = biological target: T6, MASP1-CCP1/2-SP-RQSA (human, UniProt P48740 299-699); assay: ELISA, plate coated with MASP1-CCP1/2-SP-RQSA (20 ng/well), HRP goat anti-human Fc, OD450
T6 construct: also called human MASP-1; human MASP1-CCP1/2-SP-RQSA
T6 chain: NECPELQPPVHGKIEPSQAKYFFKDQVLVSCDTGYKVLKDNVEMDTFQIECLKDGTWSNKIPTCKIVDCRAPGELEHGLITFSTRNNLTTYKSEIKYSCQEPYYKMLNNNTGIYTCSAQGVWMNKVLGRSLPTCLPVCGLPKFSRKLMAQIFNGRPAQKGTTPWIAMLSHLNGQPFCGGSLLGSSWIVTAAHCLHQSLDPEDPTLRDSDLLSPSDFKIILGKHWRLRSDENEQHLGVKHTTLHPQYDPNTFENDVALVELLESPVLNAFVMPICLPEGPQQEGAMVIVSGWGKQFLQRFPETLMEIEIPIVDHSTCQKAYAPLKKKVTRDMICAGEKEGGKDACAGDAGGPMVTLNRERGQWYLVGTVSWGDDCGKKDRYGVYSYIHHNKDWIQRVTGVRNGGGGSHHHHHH
Method: as §1

MASP3-CCP1/2-SP-RQSA = biological target: T7, MASP3-CCP1/2-SP-RQSA (human); assay: ELISA, plate coated with MASP3-CCP1/2-SP-RQSA (20 ng/well), HRP goat anti-human Fc, OD450
T7 construct: also called human MASP-3; human MASP3-CCP1/2-SP-RQSA
T7 chain: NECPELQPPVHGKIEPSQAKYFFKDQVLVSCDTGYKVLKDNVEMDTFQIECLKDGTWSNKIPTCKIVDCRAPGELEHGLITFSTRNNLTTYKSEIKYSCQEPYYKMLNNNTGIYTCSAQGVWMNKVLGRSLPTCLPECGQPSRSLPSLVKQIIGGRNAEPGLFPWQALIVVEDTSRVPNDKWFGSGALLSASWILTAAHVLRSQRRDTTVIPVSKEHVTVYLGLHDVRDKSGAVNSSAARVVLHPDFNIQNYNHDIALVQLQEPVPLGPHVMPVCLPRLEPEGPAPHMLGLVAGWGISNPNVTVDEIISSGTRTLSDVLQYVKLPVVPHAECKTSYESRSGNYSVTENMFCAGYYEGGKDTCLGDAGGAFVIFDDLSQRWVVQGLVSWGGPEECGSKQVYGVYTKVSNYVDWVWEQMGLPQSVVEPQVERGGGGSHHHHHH
Method: as §1

T4 sequence (O00187 other isoform, or with tags, fused parts or gaps limits assumed): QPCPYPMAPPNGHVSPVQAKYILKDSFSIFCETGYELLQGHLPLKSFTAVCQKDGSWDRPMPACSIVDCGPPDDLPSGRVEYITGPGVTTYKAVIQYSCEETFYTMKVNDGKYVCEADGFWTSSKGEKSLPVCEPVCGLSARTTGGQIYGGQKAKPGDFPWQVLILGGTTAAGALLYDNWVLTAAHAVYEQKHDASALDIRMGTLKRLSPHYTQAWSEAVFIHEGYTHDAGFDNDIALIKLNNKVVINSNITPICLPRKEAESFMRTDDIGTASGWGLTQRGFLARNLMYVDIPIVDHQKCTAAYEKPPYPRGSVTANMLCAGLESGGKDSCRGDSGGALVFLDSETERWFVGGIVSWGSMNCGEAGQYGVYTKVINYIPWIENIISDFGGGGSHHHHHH
T3 sequence (O00187 other isoform, or with tags, fused parts or gaps limits assumed): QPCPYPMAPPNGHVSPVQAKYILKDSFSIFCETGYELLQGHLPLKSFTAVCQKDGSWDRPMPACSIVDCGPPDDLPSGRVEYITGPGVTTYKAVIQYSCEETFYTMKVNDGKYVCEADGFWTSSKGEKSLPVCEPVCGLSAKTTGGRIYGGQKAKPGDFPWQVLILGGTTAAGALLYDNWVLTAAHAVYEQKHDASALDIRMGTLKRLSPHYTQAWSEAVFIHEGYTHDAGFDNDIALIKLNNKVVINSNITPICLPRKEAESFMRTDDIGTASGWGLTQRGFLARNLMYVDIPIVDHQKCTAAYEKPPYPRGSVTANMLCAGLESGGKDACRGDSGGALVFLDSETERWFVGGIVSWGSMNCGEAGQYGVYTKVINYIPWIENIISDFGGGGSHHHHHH
Mouse MASP2-CCP1/2-SP-RQSA, sequence (Q91WP0 other isoform, or with tags, fused parts or gaps limits assumed): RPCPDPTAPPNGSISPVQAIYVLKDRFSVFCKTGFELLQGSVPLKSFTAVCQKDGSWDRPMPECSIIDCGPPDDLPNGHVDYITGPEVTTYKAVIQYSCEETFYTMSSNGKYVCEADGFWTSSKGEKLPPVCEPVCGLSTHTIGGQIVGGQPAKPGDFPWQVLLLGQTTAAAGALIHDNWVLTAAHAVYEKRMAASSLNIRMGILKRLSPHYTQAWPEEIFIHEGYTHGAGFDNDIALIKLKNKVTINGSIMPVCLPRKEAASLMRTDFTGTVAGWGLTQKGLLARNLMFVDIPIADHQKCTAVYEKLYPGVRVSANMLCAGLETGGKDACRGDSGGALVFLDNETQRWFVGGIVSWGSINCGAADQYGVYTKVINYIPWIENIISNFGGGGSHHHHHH
Human MASP-2, sequence (O00187 16-686 limits assumed): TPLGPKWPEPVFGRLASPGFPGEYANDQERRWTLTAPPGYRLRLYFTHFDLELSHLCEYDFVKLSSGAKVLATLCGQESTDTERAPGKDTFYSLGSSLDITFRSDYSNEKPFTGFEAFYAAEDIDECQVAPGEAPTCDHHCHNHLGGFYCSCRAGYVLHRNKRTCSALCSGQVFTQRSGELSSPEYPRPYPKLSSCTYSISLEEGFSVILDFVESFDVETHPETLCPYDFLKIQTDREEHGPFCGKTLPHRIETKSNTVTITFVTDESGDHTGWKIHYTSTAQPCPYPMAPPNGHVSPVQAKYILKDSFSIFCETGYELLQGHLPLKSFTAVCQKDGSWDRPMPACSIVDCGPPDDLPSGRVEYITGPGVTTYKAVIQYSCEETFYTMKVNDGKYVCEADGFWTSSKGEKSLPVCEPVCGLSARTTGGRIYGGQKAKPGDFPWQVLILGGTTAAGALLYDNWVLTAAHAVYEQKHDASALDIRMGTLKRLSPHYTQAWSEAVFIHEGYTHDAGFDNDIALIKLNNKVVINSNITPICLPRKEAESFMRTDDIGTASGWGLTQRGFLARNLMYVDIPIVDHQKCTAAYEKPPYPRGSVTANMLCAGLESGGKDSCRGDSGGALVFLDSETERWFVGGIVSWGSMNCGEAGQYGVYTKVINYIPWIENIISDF
Rat MASP2-CCP1/2-SP-RQSA, sequence (Q9JJS8 other isoform, or with tags, fused parts or gaps limits assumed): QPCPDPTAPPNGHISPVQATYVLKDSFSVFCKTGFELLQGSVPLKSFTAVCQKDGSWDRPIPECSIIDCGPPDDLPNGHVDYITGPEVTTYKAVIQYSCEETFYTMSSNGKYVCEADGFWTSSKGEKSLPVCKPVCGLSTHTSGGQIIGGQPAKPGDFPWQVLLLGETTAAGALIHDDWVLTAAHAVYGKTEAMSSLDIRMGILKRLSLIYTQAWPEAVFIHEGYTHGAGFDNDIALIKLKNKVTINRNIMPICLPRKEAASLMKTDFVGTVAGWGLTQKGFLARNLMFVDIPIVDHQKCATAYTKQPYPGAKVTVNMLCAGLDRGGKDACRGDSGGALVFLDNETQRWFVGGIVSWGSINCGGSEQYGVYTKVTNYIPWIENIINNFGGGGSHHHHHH
T1 sequence (O00187 other isoform, or with tags, fused parts or gaps limits assumed): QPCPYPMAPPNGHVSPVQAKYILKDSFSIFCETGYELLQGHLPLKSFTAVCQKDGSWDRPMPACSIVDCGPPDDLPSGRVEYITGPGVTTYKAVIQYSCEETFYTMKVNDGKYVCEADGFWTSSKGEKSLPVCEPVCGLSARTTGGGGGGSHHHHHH
T2 sequence (O00187 other isoform, or with tags, fused parts or gaps limits assumed): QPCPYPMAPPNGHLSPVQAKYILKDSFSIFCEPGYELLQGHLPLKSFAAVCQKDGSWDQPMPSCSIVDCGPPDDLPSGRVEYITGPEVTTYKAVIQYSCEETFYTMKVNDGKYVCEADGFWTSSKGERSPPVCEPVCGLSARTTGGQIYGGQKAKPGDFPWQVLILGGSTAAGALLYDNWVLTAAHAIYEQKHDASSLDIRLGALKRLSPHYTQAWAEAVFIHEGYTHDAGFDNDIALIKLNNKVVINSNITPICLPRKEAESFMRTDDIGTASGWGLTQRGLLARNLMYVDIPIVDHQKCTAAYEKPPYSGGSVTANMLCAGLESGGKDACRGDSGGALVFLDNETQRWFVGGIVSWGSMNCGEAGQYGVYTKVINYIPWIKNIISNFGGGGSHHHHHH
T5 sequence (O00187 other isoform, or with tags, fused parts or gaps limits assumed): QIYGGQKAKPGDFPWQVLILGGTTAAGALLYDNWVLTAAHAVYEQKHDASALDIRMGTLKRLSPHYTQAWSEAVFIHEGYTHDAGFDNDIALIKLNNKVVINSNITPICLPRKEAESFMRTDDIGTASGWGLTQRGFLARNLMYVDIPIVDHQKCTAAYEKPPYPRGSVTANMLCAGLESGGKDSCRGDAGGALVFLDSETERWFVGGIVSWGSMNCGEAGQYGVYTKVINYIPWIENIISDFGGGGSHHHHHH

IC50 of C3 deposition on mannan-coated microplates (40 µg/ml mannan, 1% human plasma) (Human MASP-2): 0.0888 nM | IC50 of C3 deposition on mannan-coated microplates (100 µg/ml mannan, 1% human plasma) (Human MASP-2): 0.0996 nM | EC50 (MASP2-CCP1/2): 0.146 nM | EC50 [1]: 0.19 nM | EC50 (Rat MASP2-CCP1/2-SP-RQSA): 0.231 nM | EC50 [2]: 0.136 nM | EC50 (MASP2-CCP1/2-SP-RKSA [3]): 0.106 nM | EC50 (MASP2-CCP1/2-SP-RQ [4]): 0.136 nM | Kd (MASP2-CCP1/2-SP-RKSA [5]): 38.6 nM | koff (MASP2-CCP1/2-SP-RKSA [5]): 0.00382 s⁻¹ | kon (MASP2-CCP1/2-SP-RKSA [5]): 99200 M⁻¹ s⁻¹ | Kd (MASP2-CCP1/2-SP-RQ [6]): 4.82 nM | koff (MASP2-CCP1/2-SP-RQ [6]): 0.00361 s⁻¹ | kon (MASP2-CCP1/2-SP-RQ [6]): 750000 M⁻¹ s⁻¹
B1: 169-IgG4 (antibody, V domains shown)
VH: QVQLQESGPGLVKPSETLSLTCTVSGGSISSSSYYWGWIRQPPGKGLEWIGSIYYSGSTYYNPSLKSRVTISVDTSKNQFSLKLSSVTAADTAVYYCARDRRGRFDPWGQGTMVTVSS
VL: SYELMQPPSMSVSPGQTASITCSGDKLGDIYAYWYQQKPGQSPVLVIYQDNKRPSGIPERFSGSNSGNTATLTISGTQAMDEADYYCQAWESSTGVFGGGTKLTVLG
notes: expressed in HEK293F; also called preferred antibody
binding result (MASP2-SP-RQSA): no binding (tested: 100 nM (Log(Ab nM) = 2)) | binding result (MASP1-CCP1/2-SP-RQSA): no binding (tested: 100 nM (Log(Ab nM) = 2)) | binding result (MASP3-CCP1/2-SP-RQSA): no binding (tested: 100 nM (Log(Ab nM) = 2))

EC50 [1]: 0.169 nM | EC50 (Rat MASP2-CCP1/2-SP-RQSA): 0.455 nM
B2: Narsoplimab (antibody, human IgG4 S228P, lambda, V domains shown)
VH: QVTLKESGPVLVKPTETLTLTCTVSGFSLSRGKMGVSWIRQPPGKALEWLAHIFSSDEKSYRTSLKSRLTISKDTSKNQVVLTMTNMDPVDTATYYCARIRRGGIDYWGQGTLVTVSS
VL: QPVLTQPPSLSVSPGQTASITCSGEKLGDKYAYWYQQKPGQSPVLVMYQDKQRPSGIPERFSGSNSGNTATLTISGTQAMDEADYYCQAWDSSTAVFGGGTKLTVLG
notes: also called positive control antibody; Control Narsoplimab
binding result (MASP3-CCP1/2-SP-RQSA): no binding (tested: 100 nM (Log(Ab nM) = 2))
